Substitutions are numbered along the chain they refer to.
B1: anti-Sap Nanobody683 (VHH)
VHH: QVQLVESGGGLVQAGGSLRLSCAASGSIFRINDMGWYRQAPGKQRELVAAITSGGSTNYADSVKGRFTISRDNAKKMVYLQMNSLKPEDTAVYYCHADFSTGWAPYDYWGQGTQVTVSS
B2: anti-Sap Nanobody688 (VHH)
VHH: QVQLVESGGGLVRAGGSLRLSCAASGSIFRINDMGWYRQAPGKQRELVAAITSGGSTNYADSVKGRFTISRDNAKNTVYLQMNSLKPEDTAVYYCNADFSTVRERRYDYWGQGTQVTVSS
B3: anti-Sap Nanobody707 (VHH)
VHH: B1 VHH with D33A, P41S, S56N, K76N, M77T, H96N, S100G, W103G, A104R
B4: anti-Sap Nanobody702 (VHH)
VHH: QVQLVESGGGLVQAGGSLRLSCAASGSIFRVNDMGWYRQAPGKQRELVAIIITGGSTNYADSVKGRFTISRDNAKNTVYLQMNSLRPEDTAVYYCNADFGTGPGRYDYWGQGTQVTVSS
B5: anti-Sap Nanobody704 (VHH)
VHH: QVQLVESGGGLVQPGGSLRLSCAASGFTFSNFAIAWVRQAPGKGLEWVSDINSGGTDTSYAAAVKGRFTISRDNAKNTLYLQMNNLKPEDTAVYYCAKSAQSYFHSTFDHRGQGTQVTVSS

Molecular target: T1, B. anthracis Sap S-Layer assembly domain (Sap^AD; residues 216-814), C-terminal His6 (Bacillus anthracis, UniProt P49051 216-814)
Experiment: ITC, Nb titrated into fresh monomeric Sapc, 30 °C

Q: For B1, which Kd is on record?
A: 35 nM

Q: With B2 as the binder, how does the Kd read?
A: 120 nM

Molecular target: T1, B. anthracis Sap S-Layer assembly …
Experiment: isothermal titration calorimetry, […]

Q: How did the Kd turn out when B3 was run?
A: 103 nM

Q: For B1, which Kd is on record?
A: 35.8 nM

Q: B4 was tested. Which Kd did it give?
A: 72.5 nM

Q: For B5, which Kd is on record?
A: 183 nM

Reference: patent US20200255501A1 (VIB VZW, published 2020)
